Reference: patent US20040253685
Numbering of substitutions follows the chain as printed.

Tests used:
[1] = molecular target: T1, wild type bovine endothelial nitric oxide synthase (eNOS) (UniProt P29473)
T1 sequence: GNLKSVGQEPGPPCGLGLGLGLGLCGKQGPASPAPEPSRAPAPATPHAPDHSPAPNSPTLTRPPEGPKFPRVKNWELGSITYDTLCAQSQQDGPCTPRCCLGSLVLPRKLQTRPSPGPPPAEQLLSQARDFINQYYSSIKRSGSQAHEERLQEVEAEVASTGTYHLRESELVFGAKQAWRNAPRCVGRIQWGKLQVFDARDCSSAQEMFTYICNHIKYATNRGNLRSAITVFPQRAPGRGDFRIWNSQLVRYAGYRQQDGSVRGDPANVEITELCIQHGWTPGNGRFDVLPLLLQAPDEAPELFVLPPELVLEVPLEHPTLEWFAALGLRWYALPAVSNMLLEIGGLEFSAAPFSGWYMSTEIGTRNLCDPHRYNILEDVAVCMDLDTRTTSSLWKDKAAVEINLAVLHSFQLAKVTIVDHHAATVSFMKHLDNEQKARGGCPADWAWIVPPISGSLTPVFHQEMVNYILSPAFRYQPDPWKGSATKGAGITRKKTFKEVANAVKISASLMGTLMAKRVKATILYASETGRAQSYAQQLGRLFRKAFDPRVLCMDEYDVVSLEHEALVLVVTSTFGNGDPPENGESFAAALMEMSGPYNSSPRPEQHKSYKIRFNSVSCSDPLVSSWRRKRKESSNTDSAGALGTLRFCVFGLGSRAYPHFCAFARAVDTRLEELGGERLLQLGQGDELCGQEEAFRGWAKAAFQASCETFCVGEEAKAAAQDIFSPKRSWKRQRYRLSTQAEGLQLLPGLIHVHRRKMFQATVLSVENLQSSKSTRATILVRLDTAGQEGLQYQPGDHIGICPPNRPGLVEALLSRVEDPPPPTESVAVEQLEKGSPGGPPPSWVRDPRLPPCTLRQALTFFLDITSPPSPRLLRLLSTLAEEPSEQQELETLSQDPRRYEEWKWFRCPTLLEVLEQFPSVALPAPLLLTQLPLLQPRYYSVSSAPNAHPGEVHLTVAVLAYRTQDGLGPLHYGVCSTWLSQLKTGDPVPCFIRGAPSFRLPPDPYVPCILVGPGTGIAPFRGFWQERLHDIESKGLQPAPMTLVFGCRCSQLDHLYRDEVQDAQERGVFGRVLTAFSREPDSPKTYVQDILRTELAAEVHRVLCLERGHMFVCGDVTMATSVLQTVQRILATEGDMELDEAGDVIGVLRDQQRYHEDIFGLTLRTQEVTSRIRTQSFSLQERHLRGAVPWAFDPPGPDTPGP

[2] = tested on: histone 2B
[3] = molecular target: T2, eNOS S1179A (bovine) (UniProt P29473)
T2 sequence: T1 sequence with S1178A

[4] = tested on: mutant eNOS peptide, amino acids 1174-1194 with S1179 changed to an alanine
[5] = tested on: T3, wild-type eNOS peptide, amino acids 1174-1194
T3 sequence: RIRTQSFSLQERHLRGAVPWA

Substance | in vitro kinase reaction, incorporation of 32P into the substrate [2] | in vitro kinase reaction, incorporation of 32P into the substrate [1] | other results
constitutively active form of Akt (myr-Akt) |  |  | basal production of NO from adenovirus infected BLMVEC [1]: myr-Akt stimulates the basal production of NO from BLMVEC
HA-tagged wild-type Akt (protein kinase B) | 69.3±2.9 ... pmol of ATP/nmol substrate | 115.4±3.8 pmol of ATP/nmol substrate | 
recombinant Akt purified from baculovirus infected SF9 cells |  |  | in vitro kinase reaction with recombinant Akt, incorporation of 32P into eNOS [3]: mutation of S1179 to A markedly reduces Akt-dependent phosphorylation of eNOS compared to the wild-type protein; in vitro kinase reaction, phosphate incorporated into the peptide (Cerenkov counting) [4]: the alanine mutant peptide which incorporated 0.22±0.02 nmol phosphate/mg; in vitro kinase reaction, phosphate incorporated into the peptide (Cerenkov counting) [5]: wild-type peptide incorporated 24.6±3.7 nmol phosphate/mg
HA-tagged kinase inactive Akt (K179M) | the inactive Akt did not significantly increase histone or eNOS phosphorylation | the inactive Akt did not significantly increase histone or eNOS phosphorylation | 
